Measured values as given in patent publication US20120258108A1 (AbbVie / Abbott, published 2012).
Positions count from the first letter of the chain named.

B1: AB281 (antibody, human IgG1, kappa, V domains shown)
VH: EVTLRESGPALVKPTQTLTLTCTASGFTFDDYAMHWVRQPPGKGLEWVSAITWNSGHIDYADSVEGRFTISRDNSKNQLVLTMTNMDPVDTATYYCAKVSYLSTASSLDYWGQGTTVTVSS
VL: DIVMTQSPDSLAVSLGERATINCRASQGIRNYLAWYQQKPGQAPKLLIYAASTLQSGVPDRFSGSGSGTDFTLTISSLQAEDVAVYYCQRYNRAPYTFGGGTKVEIKR
notes: CDR-grafted parent antibody; also called TNF (AB057)
B2: DVD1720 (bispecific antibody)
heavy: not shown
light: EIVMTQSPGTLSLSPGERATLSCRASQGIRNYLAWYQQKPGQAPRLLIYAASTLQSGVPDRFSGSGSGTDFTLTISRLEPEDFAVFYCQRYNRAPYTFGQGTKVEIKRTVAAPDVQMTQSPSSLSASVGDRVTITCTSSQNIVHSNGNTYLEWYQQKPGKSPKLLIYKVSNRFSGVPSRFSGSGSGTDFTLTISSLQPEDVATYYCFQVSHVPYTFGQGTKVEIKRTVAAPSVFIFPPSDEQLKSGTASVVCLLNNFYPREAKVQWKVDNALQSGNSQESVTEQDSKDSTYSLSSTLTLSKADYEKHKVYACEVTHQGLSSPVTKSFNRGEC
B3: DVD1713 (bispecific antibody, human IgG1, kappa)
heavy: not shown
light: DIVMTQSPDSLAVSLGERATINCRASEDIYSNLAWYQQKPGQAPKLLIYDTNNLADGVPDRFSGSGSGTDFTLTISSLQAEDVAVYYCQQYNNYPPTFGGGTKVEIKRTVAAPEIVMTQSPATLSVSPGERATLSCSASQDISNYLNWYQQKPGQAPRVLIYFTSSLHSDVPARFSGSGSGTEFTLTISSLQSEDFAVYYCQQYSTVPWTFGQGTRLEIKRTVAAPSVFIFPPSDEQLKSGTASVVCLLNNFYPREAKVQWKVDNALQSGNSQESVTEQDSKDSTYSLSSTLTLSKADYEKHKVYACEVTHQGLSSPVTKSFNRGEC
notes: DVD-Ig
B4: DVD1731 (bispecific antibody, human IgG1, kappa)
heavy: not shown
light: DIQMTQSPSSLSASVGDRVTITCRASEDIYSNLAWYQQKPGKAPKLLIYDTNNLADGVPSRFSGSGSGTDFTLTISSLQPEDVATYYCQQYNNYPPTFGQGTKVEIKRTVAAPDIRMTQSPASLSASLGETVNIECSASQDISNYLNWYQQKPGKAPQVLIYFTSSLHSGVPSRFSGSGSGTQFSLKINSLQSEDVATYYCQQYSTVPWTFGGGTKLELKRTVAAPSVFIFPPSDEQLKSGTASVVCLLNNFYPREAKVQWKVDNALQSGNSQESVTEQDSKDSTYSLSSTLTLSKADYEKHKVYACEVTHQGLSSPVTKSFNRGEC
notes: DVD-Ig
B5: AB285 (antibody, human IgG1, kappa, V domains shown)
VH: EVTLRESGPALVKPTQTLTLTCTASGYTFTNYGMNWVRQPPGKGLEWVGWINTYTGEPTYAADFKRRFTFSLDTSKSQAVLTMTNMDPVDTATYYCAKYPHYYGSSHWYFDVWGQGTTVTVSS
VL: DIVMTQSPDSLAVSLGERATINCSASQDISNYLNWYQQKPGQAPKVLIYFTSSLHSGVPDRFSGSGSGTDFTLTISSLQAEDVAVYYCQQYSTVPWTFGGGTKVEIKR
notes: CDR-grafted parent antibody; also called VEGF (AB057)
B6: AB307 (antibody, human IgG1, kappa, V domains shown)
VH: EVQLLESGGGLVQPGGSLRLSCAVSGGSISSSSYYWGWIRQAPGKGLEWIGDIYYTGSTYYNPSLKSRVTISVDTSKNTFYLQMNSLRAEDTAVYYCARQALAMGGGSDKWGQGTLVTVSS
VL: EYVLTQSPGTLSLSPGERATLSCSGQRLGDKYASWYQQKPGQSPRLVIYEDSKRPSGIPDRFSGSNSGDDATLTISRLEPEDFAVFYCQAWDRDTGVFGQGTKVEIKR
notes: CDR-grafted parent antibody
B7: AB299 (antibody, human IgG1, kappa, V domains shown)
VH: EVQLVESGGGLVQPGGSLRLSCAASGFTFSNFPMAWVRQAPGKGLEWVATISSSDGTTYYRDSVKGRFTISRDNSKNTLYLQMNSLRAEDTAVYYCARGYYNSPFAYWGQGTLVTVSS
VL: DIQMTQSPSSLSASVGDRVTITCRASEDIYSNLAWYQQKPGKAPKLLIYDTNNLADGVPSRFSGSGSGTDFTLTISSLQPEDFATYYCQQYNNYPPTFGQGTKVEIKR
notes: CDR-grafted parent antibody
B8: AB309 (antibody, human IgG1, kappa, V domains shown)
VH: B7 VH with G16R, S75A, T78S
VL: B7 VL with F83V
notes: CDR-grafted parent antibody
B9: AB316 (antibody, human IgG1, kappa, V domains shown)
VH: EVQLVESGGGLVQPANSLKLSCAVSGGSISSSSYYWGWIRQSPKKGLEWIGDIYYTGSTYYNPSLKSRVTISVDTAKNTFYLQMDSLRSEDTATYYCARQALAMGGGSDKWGQGVLVTVSS
VL: DYRLTQSPASLSASLGETVNIECSGQRLGDKYASWYQQKPGKSPQLVIYEDSKRPSGIPSRFSGSNSGDQASLKINSLQSEDVATYYCQAWDRDTGVFGGGTKLELKR
notes: CDR-grafted parent antibody
B10: AB319 (antibody, human IgG1, kappa, V domains shown)
VH: B7 VH with G15A, G16N, R19K, A40S, G42K, S75A, N84D, A88S, V93T, T112V
VL: DIRMTQSPASLSASLGETVNIECRASEDIYSNLAWYQQKPGKAPQLLIYDTNNLADGVPSRFSGSGSGTQFSLKINSLQSEDVATYYCQQYNNYPPTFGGGTKLELKR
notes: CDR-grafted parent antibody
B11: AB331 (antibody, human IgG1, kappa, V domains shown)
VH: QVQLQQSGAELMKPGASVKLSCKVTGGSISSSSYYWGWIKQRPGHGLEWIGDIYYTGSTYYNPSLKSKVTITVDTSSNTFYIQLISLTTEDSAIYYCARQALAMGGGSDKWGQGTLLTVSA
VL: DYLLTQSPAILSVSPGERVSFSCSGQRLGDKYASWYQQRTNGSPRLVIYEDSKRPSGIPSRFSGGNSGDDATLSINSVESEDIADYYCQAWDRDTGVFGAGTKLELKR
notes: CDR-grafted parent antibody
B12: AB334 (antibody, human IgG1, kappa, V domains shown)
VH: QVQLQQSGAELMKPGASVKLSCKATGFTFSNFPMAWVKQRPGHGLEWVATISSSDGTTYYRDSVKGKFTITRDNSSNTLYIQLISLTTEDSAIYYCARGYYNSPFAYWGQGTLLTVSA
VL: DILMTQSPAILSVSPGERVSFSCRASEDIYSNLAWYQQRTNGAPRLLIYDTNNLADGVPSRFSGGGSGTDFTLSINSVESEDIADYYCQQYNNYPPTFGAGTKLELKR
notes: CDR-grafted parent antibody
B13: AB287 (antibody, human IgG1, kappa, V domains shown)
VH: EVTLRESGPALVKPTQTLTLTCTVSGGSISSSSYYWGWIRQPPGKGLEWIGDIYYTGSTYYNPSLKSRVTISVDTSKNQFVLTMTNMDPVDTATYYCARQALAMGGGSDKWGQGTTVTVSS
VL: DYVLTQSPDSLAVSLGERATINCSGQRLGDKYASWYQQKPGQSPKLVIYEDSKRPSGIPDRFSGSNSGDDATLTISSLQAEDVAVYYCQAWDRDTGVFGGGTKVEIKR
notes: CDR-grafted parent antibody
B14: AB289 (antibody, human IgG1, kappa, V domains shown)
VH: EVQLVQSGTEVKKPGESLKISCKASGFTFSNFPMAWVRQMPGKGLEWVATISSSDGTTYYRDSVKGQFTISRDNSFNTLFLQWSSLKASDTAMYYCARGYYNSPFAYWGQGTMVTVSS
VL: EIVMTQSPATLSVSPGERATLSCRASEDIYSNLAWYQQKPGQAPRLLIYDTNNLADDVPARFSGSGSGTEFTLTISSLQSEDFAVYYCQQYNNYPPTFGQGTRLEIKR
notes: CDR-grafted parent antibody
B15: AB290 (antibody, human IgG1, kappa, V domains shown)
VH: EVTLRESGPALVKPTQTLTLTCTASGFTFSNFPMAWVRQPPGKGLEWVATISSSDGTTYYRDSVKGRFTISRDNSKNQLVLTMTNMDPVDTATYYCARGYYNSPFAYWGQGTTVTVSS
VL: DIVMTQSPDSLAVSLGERATINCRASEDIYSNLAWYQQKPGQAPKLLIYDTNNLADGVPDRFSGSGSGTDFTLTISSLQAEDVAVYYCQQYNNYPPTFGGGTKVEIKR
notes: CDR-grafted parent antibody
B16: AB306 (antibody, human IgG1, kappa, V domains shown)
VH: B6 VH with L5V, G16R, S76A, T79S
VL: DYQLTQSPSSLSASVGDRVTITCSGQRLGDKYASWYQQKPGKSPKLVIYEDSKRPSGIPSRFSGSNSGDDATLTISSLQPEDVATYYCQAWDRDTGVFGQGTKVEIKR
notes: CDR-grafted parent antibody

These binders were tested against T1, Recombinant Human TNFα/TNFSF1A (human, UniProt P01375 77-233) (assay: cell-based or functional assay).
T1 sequence (P01375 77-233 limits assumed): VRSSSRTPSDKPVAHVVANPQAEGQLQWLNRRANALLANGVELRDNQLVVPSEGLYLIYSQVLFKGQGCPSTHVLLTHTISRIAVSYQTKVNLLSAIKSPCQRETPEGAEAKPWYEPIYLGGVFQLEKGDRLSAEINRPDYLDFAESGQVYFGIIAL
B1 was tested, and the “TNFα Neutralization Assay EC50 nM (L929 cells)” value was 0.104 nM.
B2 was tested, and the “N-terminal VD TNFα Neutralization Assay EC50 nM (L929 cells)” value was 0.026 nM.

What follows are binders tested against Recombinant Human VEGF 165 (human, UniProt P15692-4 27-191) (assay: SPR (BIACORE)).
Chain of Recombinant Human VEGF 165 (P15692 other isoform, or with tags, fused parts or gaps limits assumed): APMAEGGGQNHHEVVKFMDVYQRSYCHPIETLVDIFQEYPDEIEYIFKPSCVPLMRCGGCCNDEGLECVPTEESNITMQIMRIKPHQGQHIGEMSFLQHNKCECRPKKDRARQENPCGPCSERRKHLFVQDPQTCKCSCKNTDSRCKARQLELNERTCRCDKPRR
Experimental: (§1) The BIACORE assay (Biacore, Inc, Piscataway, N.J.) determines the affinity of antibodies or DVD-Ig with kinetic measurements of on-rate and off-rate constants. Binding of antibodies or DVD-Ig to a target antigen (for example, a purified recombinant target antigen) was determined by surface plasmon resonance-based measurements with a Biacore® 1000 or 3000 instrument (Biacore® AB, Uppsala, Sweden) using running HBS-EP (10 mM HEPES [pH 7.4], 150 mM NaCl, 3 mM EDTA, and 0.005% surfactant P20) at 25° C. All chemicals were obtained from Biacore® AB (Uppsala, Sweden) or otherwise from a different source as described in the text. For example, approximately 5000 RU of goat anti-mouse IgG, (Fcγ), fragment specific polyclonal antibody (Pierce Biotechnology Inc, Rockford, Ill.) diluted in 10 mM sodium acetate (pH 4.5) is directly immobilized across a CM5 research grade biosensor chip using a standard amine coupling kit according to manufacturer's instructions and procedures at 25 μg/ml. Unreacted moieties on the biosensor surface are blocked with ethanolamine. Modified carboxymethyl dextran surface in flowcell 2 and 4 is used as a reaction surface. Unmodified carboxymethyl dextran without goat anti-mouse IgG in flow cell 1 and 3 is used as the reference surface. For kinetic analysis, rate equations derived from the 1:1 Langmuir binding model are fitted simultaneously to association and dissociation phases of all eight injections (using global fit analysis) with the use of Biaevaluation 4.0.1 software. Purified antibodies or DVD-Ig are diluted in HEPES-buffered saline for capture across goat anti-mouse IgG specific reaction surfaces. Antibodies or DVD-Ig to be captured as a ligand (25 μg/ml) are injected over reaction matrices at a flow rate of 5 μl/min. The association and dissociation rate constants, kₒₙ (M⁻¹ s⁻¹) and koff (s⁻¹) are determined under a continuous flow rate of 25 μl/min. Rate constants are derived by making kinetic binding measurements at different antigen concentrations ranging from 10-200 nM. The equilibrium dissociation constant (M) of the reaction between antibodies or DVD-Igs and the target antigen is then calculated from the kinetic rate constants by the following formula: KD=koff/kₒₙ. Binding is recorded as a function of time and kinetic rate constants are calculated.
For B3, the Kd was 0.1 nM, the koff was 7.7e-05 s⁻¹ and the kon was 760000 M⁻¹ s⁻¹.
B4 was tested, and the Kd was 0.5 nM, the koff was 4.5e-05 s⁻¹ and the kon was 89000 M⁻¹ s⁻¹.
B5 showed a Kd of under 0.001 nM, a koff of under 1e-06 s⁻¹ and a kon of 1e+06 M⁻¹ s⁻¹.

What follows are binders tested against Recombinant Human DLL4 (human, UniProt Q9NR61 27-524) (assay: SPR (BIACORE)).
Chain of Recombinant Human DLL4 (Q9NR61 27-524 limits assumed): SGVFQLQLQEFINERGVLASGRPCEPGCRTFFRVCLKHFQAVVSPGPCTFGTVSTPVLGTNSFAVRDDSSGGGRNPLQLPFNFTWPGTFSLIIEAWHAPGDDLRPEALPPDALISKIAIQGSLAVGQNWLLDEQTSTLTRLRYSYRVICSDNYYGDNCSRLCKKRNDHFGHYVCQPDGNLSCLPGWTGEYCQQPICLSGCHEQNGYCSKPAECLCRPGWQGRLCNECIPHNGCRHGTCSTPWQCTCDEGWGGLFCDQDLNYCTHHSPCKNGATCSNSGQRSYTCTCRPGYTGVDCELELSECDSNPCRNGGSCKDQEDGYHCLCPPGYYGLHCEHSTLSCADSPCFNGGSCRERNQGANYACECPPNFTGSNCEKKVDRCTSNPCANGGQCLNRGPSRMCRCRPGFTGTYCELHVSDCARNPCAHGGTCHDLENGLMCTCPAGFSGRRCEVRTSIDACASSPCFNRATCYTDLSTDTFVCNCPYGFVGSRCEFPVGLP
Experimental: as §1
B6 showed a Kd of 1 nM, a koff of 9.5e-05 s⁻¹ and a kon of 93000 M⁻¹ s⁻¹.
For B7, the Kd was 24 nM, the koff was 0.0039 s⁻¹ and the kon was 160000 M⁻¹ s⁻¹.
For B8, the Kd was 22 nM, the koff was 0.0028 s⁻¹ and the kon was 130000 M⁻¹ s⁻¹.
In the case of B9, the Kd is reported as 1 nM, the koff is reported as 9.2e-05 s⁻¹ and the kon is reported as 89000 M⁻¹ s⁻¹.
In the case of B10, the Kd is reported as 20 nM, the koff is reported as 0.002 s⁻¹ and the kon is reported as 100000 M⁻¹ s⁻¹.
B11 was tested, and the Kd was 2.3 nM, the koff was 0.00018 s⁻¹ and the kon was 76000 M⁻¹ s⁻¹.
For B12, the Kd was 14 nM, the koff was 0.0055 s⁻¹ and the kon was 390000 M⁻¹ s⁻¹.
For B3, the Kd was 31 nM, the koff was 0.0029 s⁻¹ and the kon was 92000 M⁻¹ s⁻¹.
For B4, the Kd was 22 nM, the koff was 0.0028 s⁻¹ and the kon was 120000 M⁻¹ s⁻¹.
B13 gave a Kd of 1.5 nM, a koff of 0.00012 s⁻¹ and a kon of 84000 M⁻¹ s⁻¹.
For B14, the Kd was 21 nM, the koff was 0.0055 s⁻¹ and the kon was 260000 M⁻¹ s⁻¹.
B15 gave a Kd of 20 nM, a koff of 0.0039 s⁻¹ and a kon of 200000 M⁻¹ s⁻¹.
B16 was tested, and the Kd was 2.2 nM, the koff was 0.00015 s⁻¹ and the kon was 68000 M⁻¹ s⁻¹.

These binders were tested against T1, Recombinant Human TNFα/TNFSF1A (assay: SPR (BIACORE)).
Experimental: as §1
For B1, the Kd was 0.088 nM, the koff was 0.0001 s⁻¹ and the kon was 1.2e+06 M⁻¹ s⁻¹.
